± gives the uncertainty stated by the source.
Test: abundance fitness (aPCA) (normalised: wild type 0, dead -1); higher = more abundant; growth selection in yeast, the domain comes from the species named
Conditions: Homo sapiens

| Substance | abundance fitness |
| --- | --- |
| DnaJ homolog subfamily B member 1 R30Y, P25685 | 0.131 ± 0.087 |
| DnaJ homolog subfamily B member 1 D53F, P25685 | -0.249 ± 0.19 |
| DnaJ homolog subfamily B member 1 A12N, P25685 | -0.147 ± 0.089 |
| DnaJ homolog subfamily B member 1 A12T, P25685 | -0.28 ± 0.088 |
| DnaJ homolog subfamily B member 1 R25D, P25685 | -0.15 ± 0.13 |
| DnaJ homolog subfamily B member 1 E42C, P25685 | -0.048 ± 0.097 |
| DnaJ homolog subfamily B member 1 E42D, P25685 | 0.116 ± 0.11 |
| DnaJ homolog subfamily B member 1 E43T, P25685 | -0.109 ± 0.12 |
| DnaJ homolog subfamily B member 1 D65I, P25685 | -0.387 ± 0.1 |
| DnaJ homolog subfamily B member 1 V54T, P25685 | 0.065 ± 0.12 |
| DnaJ homolog subfamily B member 1 E43V, P25685 | 0.112 ± 0.062 |
| DnaJ homolog subfamily B member 1 Q7P, P25685 | -0.567 ± 0.088 |
| DnaJ homolog subfamily B member 1 Y24F, P25685 | -0.075 ± 0.2 |
| DnaJ homolog subfamily B member 1 L11V, P25685 | -0.041 ± 0.065 |
| DnaJ homolog subfamily B member 1 E62F, P25685 | -0.519 ± 0.12 |
| DnaJ homolog subfamily B member 1 Y24C, P25685 | -0.504 ± 0.086 |
| DnaJ homolog subfamily B member 1 Y5E, P25685 | -0.808 ± 0.28 |
| DnaJ homolog subfamily B member 1 P58K, P25685 | 0.021 ± 0.31 |
| DnaJ homolog subfamily B member 1 A49C, P25685 | 0.049 ± 0.12 |
| DnaJ homolog subfamily B member 1 R59C, P25685 | -0.128 ± 0.14 |
| DnaJ homolog subfamily B member 1 R25I, P25685 | 0.008 ± 0.13 |
| DnaJ homolog subfamily B member 1 K60D, P25685 | -0.442 ± 0.13 |
| DnaJ homolog subfamily B member 1 E19Q, P25685 | 0.118 ± 0.12 |
| DnaJ homolog subfamily B member 1 L55P, P25685 | -0.705 ± 0.088 |
| DnaJ homolog subfamily B member 1 D57P, P25685 | -0.715 ± 0.19 |
| DnaJ homolog subfamily B member 1 K37C, P25685 | -0.267 ± 0.14 |

| Substance | abundance fitness |
| --- | --- |
| DnaJ homolog subfamily B member 1 N36I, P25685 | -0.181 ± 0.13 |
| DnaJ homolog subfamily B member 1 A23I, P25685 | -0.819 ± 0.11 |
| DnaJ homolog subfamily B member 1 L9M, P25685 | -0.412 ± 0.16 |
| DnaJ homolog subfamily B member 1 A49D, P25685 | -0.086 ± 0.12 |
| DnaJ homolog subfamily B member 1 I48L, P25685 | -0.089 ± 0.072 |
| DnaJ homolog subfamily B member 1 R25E, P25685 | 0.173 ± 0.082 |
| DnaJ homolog subfamily B member 1 Q27E, P25685 | -0.231 ± 0.36 |
| DnaJ homolog subfamily B member 1 A12H, P25685 | -0.175 ± 0.15 |
| DnaJ homolog subfamily B member 1 Q27T, P25685 | -0.266 ± 0.12 |
| DnaJ homolog subfamily B member 1 G10R, P25685 | -0.239 ± 0.066 |
| DnaJ homolog subfamily B member 1 P39F, P25685 | -0.041 ± 0.2 |
| DnaJ homolog subfamily B member 1 E43N, P25685 | -0.003 ± 0.21 |
| DnaJ homolog subfamily B member 1 A28L, P25685 | -0.032 ± 0.065 |
| DnaJ homolog subfamily B member 1 G14A, P25685 | -0.353 ± 0.13 |
| DnaJ homolog subfamily B member 1 A15D, P25685 | -0.502 ± 0.092 |
| DnaJ homolog subfamily B member 1 A41S, P25685 | -0.146 ± 0.072 |
| DnaJ homolog subfamily B member 1 I48E, P25685 | -0.697 ± 0.095 |
| DnaJ homolog subfamily B member 1 G40C, P25685 | -0.113 ± 0.16 |
| DnaJ homolog subfamily B member 1 K35H, P25685 | -0.724 ± 0.12 |
| DnaJ homolog subfamily B member 1 A28E, P25685 | -0.116 ± 0.12 |
| DnaJ homolog subfamily B member 1 P39G, P25685 | -0.287 ± 0.16 |
| DnaJ homolog subfamily B member 1 E38W, P25685 | -0.019 ± 0.081 |
| DnaJ homolog subfamily B member 1 S16T, P25685 | -0.057 ± 0.092 |
| DnaJ homolog subfamily B member 1 I63V, P25685 | 0.016 ± 0.065 |
| DnaJ homolog subfamily B member 1 T8E, P25685 | -0.239 ± 0.11 |
| DnaJ homolog subfamily B member 1 A23L, P25685 | -0.839 ± 0.053 |

| Substance | abundance fitness |
| --- | --- |
| DnaJ homolog subfamily B member 1 S16D, P25685 | -0.174 ± 0.09 |
| DnaJ homolog subfamily B member 1 A15I, P25685 | -0.69 ± 0.14 |
| DnaJ homolog subfamily B member 1 A41D, P25685 | -0.036 ± 0.13 |
| DnaJ homolog subfamily B member 1 E62R, P25685 | -0.344 ± 0.095 |
| DnaJ homolog subfamily B member 1 E38D, P25685 | -0.287 ± 0.24 |
| DnaJ homolog subfamily B member 1 R13M, P25685 | -0.219 ± 0.092 |
| DnaJ homolog subfamily B member 1 E19P, P25685 | -1.29 ± 0.11 |
| DnaJ homolog subfamily B member 1 E42H, P25685 | -0.003 ± 0.098 |
| DnaJ homolog subfamily B member 1 P58A, P25685 | -0.081 ± 0.09 |
| DnaJ homolog subfamily B member 1 S56W, P25685 | -0.853 ± 0.11 |
| DnaJ homolog subfamily B member 1 A28Y, P25685 | 0.007 ± 0.14 |
| DnaJ homolog subfamily B member 1 D34W, P25685 | -0.02 ± 0.15 |
| DnaJ homolog subfamily B member 1 D4G, P25685 | -0.398 ± 0.17 |
| DnaJ homolog subfamily B member 1 T8S, P25685 | -0.149 ± 0.093 |
| DnaJ homolog subfamily B member 1 G40E, P25685 | -0.194 ± 0.1 |
| DnaJ homolog subfamily B member 1 Y31P, P25685 | -0.537 ± 0.095 |
| DnaJ homolog subfamily B member 1 G40P, P25685 | -0.248 ± 0.12 |
| DnaJ homolog subfamily B member 1 Y31M, P25685 | -0.164 ± 0.092 |
| DnaJ homolog subfamily B member 1 F45Y, P25685 | -0.178 ± 0.17 |
| DnaJ homolog subfamily B member 1 R25K, P25685 | -0.022 ± 0.057 |
| DnaJ homolog subfamily B member 1 S56C, P25685 | 0.022 ± 0.16 |
| DnaJ homolog subfamily B member 1 G14L, P25685 | -0.266 ± 0.074 |
| DnaJ homolog subfamily B member 1 Y6W, P25685 | -0.204 ± 0.13 |
| DnaJ homolog subfamily B member 1 E19S, P25685 | -0.18 ± 0.069 |
| DnaJ homolog subfamily B member 1 S16V, P25685 | -0.301 ± 0.066 |
| DnaJ homolog subfamily B member 1 D53W, P25685 | -0.405 ± 0.12 |

| Substance | abundance fitness |
| --- | --- |
| DnaJ homolog subfamily B member 1 A23N, P25685 | -0.169 ± 0.12 |
| DnaJ homolog subfamily B member 1 Q27F, P25685 | -0.115 ± 0.13 |
| DnaJ homolog subfamily B member 1 K46W, P25685 | -0.175 ± 0.31 |
| DnaJ homolog subfamily B member 1 E50Q, P25685 | -0.177 ± 0.082 |
| DnaJ homolog subfamily B member 1 A41M, P25685 | -0.214 ± 0.089 |
| DnaJ homolog subfamily B member 1 D17K, P25685 | -0.287 ± 0.14 |
| DnaJ homolog subfamily B member 1 D57V, P25685 | -0.317 ± 0.098 |
| DnaJ homolog subfamily B member 1 Y52V, P25685 | -0.249 ± 0.089 |
| DnaJ homolog subfamily B member 1 S16Y, P25685 | -0.676 ± 0.073 |
| DnaJ homolog subfamily B member 1 G40Y, P25685 | -0.182 ± 0.15 |
| DnaJ homolog subfamily B member 1 I48F, P25685 | -0.41 ± 0.13 |
| DnaJ homolog subfamily B member 1 A15H, P25685 | -0.866 ± 0.15 |
| DnaJ homolog subfamily B member 1 R61A, P25685 | -0.596 ± 0.16 |
| DnaJ homolog subfamily B member 1 A15M, P25685 | -0.627 ± 0.1 |
| DnaJ homolog subfamily B member 1 L55Q, P25685 | -0.747 ± 0.1 |
| DnaJ homolog subfamily B member 1 L29V, P25685 | -0.052 ± 0.076 |
| DnaJ homolog subfamily B member 1 E43S, P25685 | -0.014 ± 0.092 |
| DnaJ homolog subfamily B member 1 R13T, P25685 | -0.138 ± 0.089 |
| DnaJ homolog subfamily B member 1 S56A, P25685 | -0.142 ± 0.085 |
| DnaJ homolog subfamily B member 1 P39C, P25685 | -0.016 ± 0.15 |
| DnaJ homolog subfamily B member 1 D65S, P25685 | -0.158 ± 0.18 |
| DnaJ homolog subfamily B member 1 R26K, P25685 | 0.052 ± 0.18 |
| DnaJ homolog subfamily B member 1 R26H, P25685 | 0.163 ± 0.11 |
| DnaJ homolog subfamily B member 1 R30N, P25685 | 0.014 ± 0.1 |
| DnaJ homolog subfamily B member 1 R13D, P25685 | -0.117 ± 0.22 |

Reference: the Human Domainome abundance scans (Beltran et al. 2025)
